Laboratory results published in patent publication WO2002045743A2.

Legend:
[1] = target: MH2 peptide (Hepatitis C virus); test: peptide EIA, Nunc-Immuno and CovaLab plates
[2] = target: MH2 peptide (Hepatitis C virus); test: peptide EIA (Table 4)
[3] = target: MH2 peptide (Hepatitis C virus); test: IAsys biosensor, BSA-HVR1 peptide conjugate

Binder	EIA Sample/Cutoff ratio (S/CO) [1]	EIA Sample/Cutoff ratio (S/CO) [2]	Kd [3]
mAb 2P24 (antibody) chain 1: EFQLQQSGAELVRPGPLVTLSCKASGFNIKDYYMNWVKQRPEQGLEWIGRIDPKNGNALYDPKFQDKARITADTSSNTAYLQLNSLTSEATAVYYCSSGWLDYWGQGTSLAVYS chain 2: DIVMTQSPASLAVFRGQRATISYRASKSVSTSGYSYMHWNQQKPGQPPRLLIYLVSNLESGVPARFSGSGSGTDFTLNIHPVEEEDAATYYCQHIRELTAFGGGTK	24.9 S/CO	24.9 S/CO	5.85 nM
mAb 15H4 (antibody) chain 1: QVQLQQSGAELARPGASVKLSCKASGYTFTRYWMQWVKQKPGQGLEWIGAIYCGDGDTRFTQKFKGKATLTADKSSSTAYMQLSNLASEDSAVYYCVIYGNYYDAMDYWGQGTSVTVSS chain 2: DIVMTQAPLSMPVSLGDQASISGRSSQSLVHSNGNTYLHWYLQKPGQSPKLLIHKVSKRFSGVPDRFSGSGSGTDFTLKIRRVEAEDLGVYFCSQNTHVPFTFGGGTK	18.1 S/CO	13.6 S/CO	21.5 nM
